Tested on: MS2 coat protein
Assay: apparent KD of MS2 coat protein; designed switch direction (-1 OFF switch, 1 ON switch): -1; higher = weaker reporter binding
How it was run: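 Designed RNA switches sharing common flanks were transcribed on Illumina chips by stalled E. coli RNA polymerase. They were titrated with SNAP-549-labelled MS2 coat protein, from 0.7 or 1.5 nM doubling to 3 µM, in Tris-HCl pH 7.5 buffer with KCl, MgCl2, BSA, DTT, tRNA and Tween-20. Titrations ran without input, with 200 uM small-molecule ligand, or with an oligonucleotide input. The apparent KD of each design is the median over its clusters, after curve-fitting of normalised cluster fluorescence.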

[1] = Eterna round: R95, input ligand: microRNA oligo, concentration not stated
[2] = Eterna round: R95, input ligand: FMN 200 uM
[3] = Eterna round: R95, input ligand: none

| Sequence | apparent KD of MS2 coat protein (input ligand: FMN 200 uM) [µM] | apparent KD of MS2 coat protein (input ligand: none) [µM] | apparent KD of MS2 coat protein [1] [µM] | apparent KD of MS2 coat protein [2] [µM] | apparent KD of MS2 coat protein [3] [µM] |
| --- | --- | --- | --- | --- | --- |
| GAUCGACAUGAGGAUCACCCAUGUCAGGAUAUGCAACGGACAAAACGAUACGUCAUAGGUAGAAGGGACUGUCU [Eternabot (Original) Solution 2] (Eterna round: R97, puzzle: Exclusion 1) | 0.0184 | 0.0177 | – | – | – |
| GAUGAGAGAGGAUAUACAUGAGGAUCACCCAUGUAAUUUUCGGACAUGGAAGCCUGAUGUAGAAGGCUCGCAUG [Usmaercele] (puzzle: Exclusion 3) | – | – | 0.0763 | – | – |
| GAUGAGGUAGGAUAUACGAGAAGAUAGGGUAGAUAUAUAACACAUGAGGAUCACCCAUGUAGAAGGACCAGUAG [Mat - Exclusion 2 - Mod of my Tesla design - D71] (puzzle: Exclusion 2) | – | – | 0.0364 | 0.0651 | 0.0317 |
| GAUGGCUUAGGAUAUACAUAGAAGAAUUGAACUUGGAUUAUACAUGAGGAUCACCCAUGUAGAAGGAGGUCAUC [ExGluten 4 - Jieux - Exclusion 2] (Eterna round: R97, puzzle: Exclusion 2) | 0.053 | 0.0291 | – | – | – |
| GAUGGUCGAGGAUAUGCACCAGGGUCGACCUACUAGCGAAGACAUGAGGAUCACCCAUGUAGAAGGUGGCGGUU [Eternabot (L2) Solution 75] (Eterna round: R97, puzzle: Exclusion 2) | 0.0739 | 0.0824 | – | – | – |
| GAUUAUGCGAGCUUUAGGGACAUGAGGAUCACCCAUGUUCGUCUUAUUAGUCUGAGUACACUGACAUACCUAAAUCU [JMF 62] (puzzle: Sensor v3, turn-off variant 1) | – | – | 0.0148 | 0.0142 | 0.0133 |
| GAUUAUGCGAGCUUUAGGGACAUGAGGAUCACCCAUGUUCGUCUUAUUGAUCUGGAUGCGCUAACAUACCUAAAUCU [JMF 45] (puzzle: Sensor v3, turn-off variant 1) | – | – | 0.0711 | 0.065 | 0.0629 |
| GAUUAUGCGAGCUUUAGGGACAUGAGGAUCACCCAUGUUCGUCUUAUUGAUCUGGGUACGCUAACAUACCUAAAUCU [JMF 42] (puzzle: Sensor v3, turn-off variant 1) | – | – | 0.0892 | 0.0822 | 0.0967 |
| GAUUAUGCGAGCUUUAGGGACAUGAGGAUCACCCAUGUUCGUCUUAUUGGUCUAAAUGCACUGACAUACCUAAAUCU [JMF 74] (puzzle: Sensor v3, turn-off variant 1) | – | – | 0.0198 | 0.0149 | 0.0167 |
| GAUUAUGCGAGCUUUAGGGACAUGAGGAUCACCCAUGUUCGUCUUAUUGGUCUAGAUACACUAACAUACCUAAAUCU [JMF 12] (puzzle: Sensor v3, turn-off variant 1) | – | – | 0.0214 | 0.0152 | 0.0174 |
| GAUUAUGCGAGCUUUAGGGACAUGAGGAUCACCCAUGUUCGUCUUAUUGGUCUGGGUACACUGACAUACCUAAAUCU [JMF 72] (puzzle: Sensor v3, turn-off variant 1) | – | – | 0.0422 | 0.0339 | 0.0324 |
| GAUUCAUAUGACUUUCUAUACAUGAGGAUCACCCAUGUUUGUUUUUUUUGUUUUUCGCUUUUUAGUCGUCUUAUUAU [Gravy 3] (Eterna round: R97, puzzle: Sensor, turn-off variant 1) | 0.0196 | 0.019 | – | – | – |
